± gives the uncertainty stated by the source.
Experiment: amyloid nucleation score (Sup35N fusion, yeast selection) (log enrichment); library NNK2; higher = more nucleation; inactive = no reads after selection
Method in brief: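 Output and input plasmid inserts were sequenced by Illumina after psi-negative yeast carrying Sup35N fused to peptides of 20 random codons had been induced 24 hours with 100 μM copper sulfate and grown 7 days at 30°C on medium lacking adenine and uracil. The nucleation score is the DiMSum log enrichment of output over input reads, centred on the mode score of non-aggregating sequences. Sequences with under 100 input reads were excluded.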

Substance | amyloid nucleation score
KTFMCSFSQHVKGSGVFLTS | -0.346 ± 0.49
VTGNKEVMKIRCWVAHEESY | 0.436 ± 0.49
NNFYKWGESCLN | -0.9 ± 0.76
NGDSGG | 1.02 ± 0.16
KFLGYQLPPRDSSSGTF | 0.066 ± 0.27
DLTCRTSLSRGWKVLASSNG | 0.413 ± 0.31
HATVHSSRCHSYHPGL | 6.707 ± 0.054
LVGMSANNTVKYSK | 0.144 ± 0.36
FACIPIQCIGISGRGSRDRR | 8.017 ± 0.044
LTICS | -1.03 ± 0.78
VCSTEV | 0.32 ± 0.74
AGCVVNHTPRLLGRSTKRLK | 3.1 ± 0.062
PINVRNYKRVCGGMVV | inactive
QTGNFPIDHVQYCFFRITLS | -1.28 ± 0.62
FSLSQ | 3.55 ± 0.11
IIVIVWQGWSNGVGLHSCGA | 3.15 ± 0.063
CYRDMALGGCNVNVQLFVEA | -0.049 ± 0.54
RQVWLR | 0.854 ± 0.32
ILWNLNY | -0.596 ± 0.4
MRFPGSGGRCLMTFLRLEWV | 0.329 ± 0.28
AVYFYRALDVVMCAFVRKGE | 6.01 ± 0.068
EQRILRLSRSIESFSMNRNQ | -0.593 ± 0.64
RLCLYN | -1.2 ± 0.38
TLGNKFLKSWYMGASKTMCV | -1.78 ± 0.75
SKPGNIKWYSGFSKRQREAA | inactive
VFINRFHRVMLRAVIRQGVV | 0.31 ± 0.5

Substance | amyloid nucleation score
VSLLCIFVAYGNWVMNGDDP | -0.136 ± 0.62
KRVLDSGFN | -0.845 ± 1
CETLSGMRGLCRKKTDVPDI | -0.036 ± 0.63
TGLVFVLMCKSCQWFFREML | -0.948 ± 0.42
PALPTVNLNS | -0.475 ± 0.42
FGILGCMYVNPNMNMIYWLW | 1.56 ± 0.24
KHIWAMNGCYSLLLKNPALV | -0.649 ± 1.1
MLNYAYSL | 1.42 ± 0.32
KSCAVFYSSNYVSGSNYLFF | 6.369 ± 0.047
AWFVYYVYRMFLNVSTSYWK | 0.074 ± 0.74
SREYLSRFVTFYLMYFYAKS | -0.516 ± 0.64
KLYWGNWWCRGSLVDTI | 0.695 ± 0.66
HPSFLRIWDYIRSKFNSVHR | inactive
KKRQCGMVGLNLVGQYLHSF | -1.3 ± 0.62
STCFVCFFTYVNSYIVLFT | 5.63 ± 0.082
FLGDFRVCLF | inactive
PHHMIDAGASPSLN | -1.52 ± 0.62
KYDVEGMQVSRNFY | -0.424 ± 0.79
HSSISVCVYSRLPCH | -0.447 ± 0.36
VSAKNIMSSAAER | 0.451 ± 0.35
QYHCPS | -0.616 ± 0.5
TYKAAICLGCS | 6.548 ± 0.033
ELLYWCANHDAGIVRVEFWW | 1.48 ± 0.1
RNCHYYILVTLCNVKNVYL | 8.283 ± 0.054
RCSVGVAWEVGKYVIKIRGF | -1.08 ± 0.62
MGRLNVYLNVRLISKVIGIQ | 3.63 ± 0.053

Substance | amyloid nucleation score
YFRWGLSSKASLWHVRWALG | 0.409 ± 0.8
FYQRLMSLTTMYLIQRHSL | -0.038 ± 0.74
ALLYYTAVVDKNYTSDLSHD | -0.899 ± 0.37
ATVYMLHALVSDGCQLGD | 0.399 ± 0.31
TIGRSFYELPFYGAILFWMR | 1.45 ± 0.21
SLMVQWSTILAHIRHFMTA | 0.073 ± 0.63
NYHPFLVF | -0.909 ± 0.54
CTIIFNLLLAD | 7.396 ± 0.055
LMNMSSRSTQCNNQG | -0.139 ± 0.55
NMQFSSTFRYSGYYYLVEHW | 1.59 ± 0.13
EFDQWFLLFSLRSSFGLYLF | 0.078 ± 0.25
YGLALFTRI | -0.347 ± 0.44
GPTSVRISPPGVCVLCPPSP | 0.133 ± 0.31
LLSSSTIIHLRMCMIHGSFW | 0.791 ± 0.67
LVQLKRCQMSLWMRHYHRDE | 5.951 ± 0.055
CMEKFTLELTVIIRHSNQLG | 0.225 ± 0.31
LRTISCIITLVGWITASTKH | 0.124 ± 0.62
GSWDFSGAIMGLSYSKTVYI | -1.18 ± 1.1
ILYFCRVLITVCMIVDMWGE | 0.333 ± 0.64
QKDLVSRGQYEVIVDSGTLG | 4.446 ± 0.035
IGHLPMMVLT | 1.42 ± 0.36
GLNQSSLCNGEMGYCRIIWR | -1.03 ± 1.1
CSCMDRFL | 1.41 ± 0.15
EPSCTATKFVSGTMF | 2.17 ± 0.11
WMRRAVAAND | 0.186 ± 0.54
IRVYRGGLFNSLKKENVGAC | inactive

Substance | amyloid nucleation score
YFYYRFGHDVVF | inactive
MLNSMVGQNFVGYNHALFFH | 4.16 ± 0.089
DIFALYFA | -1.16 ± 0.63
RYISYITSVSESRQGNRPYG | -0.446 ± 0.28
SYVCRIERADVACWVKEEGA | 0.857 ± 0.28
GILYLSLYDFCV | -0.763 ± 1
ISKEMGNYNFGLSKYAKR | -1.06 ± 0.3
FVYVVEGVWEKGIKFFMIFK | -0.913 ± 1.1
GVVTFV | 0.157 ± 0.76
NCKYVVTMMLTSGLCAENIW | -0.81 ± 1
YNKNSKFLGRFDCSLFI | -1.04 ± 1.1
QYVSMKMNLRTR | -0.403 ± 1
TGLCHPIGLPDRFRYIIRSL | -0.789 ± 0.55
ARSTAFMPEPSFLV | 0.054 ± 0.56
WNFKGRLLRMQLTRAHVNHT | inactive
RRHEPVPSSK | 0.398 ± 0.66
SPSEYLLVAYMSHLTENETV | -0.064 ± 0.45
YTFWNVLC | 3.59 ± 0.084
VICRGVHSHSLGWGSCITCS | -0.98 ± 0.48
RVQAGFIRAGCNIEARKFSG | -0.48 ± 0.28
GLVVTSNPSDMSVMELCLWF | -0.347 ± 0.3
SKCIRLPFFTLLLTNMFHVA | inactive
TSWVYDEYVVCLPSWASYVL | -0.509 ± 1.1
RAVRDLLVLNIINVAVTSIN | 7.495 ± 0.043
NVTVAWFVNLSPWF | 7.288 ± 0.045
SISRVMEMTSLSIHRFIRLC | -0.918 ± 1.1

Substance | amyloid nucleation score
YGVYGHFKTLGNLTNRDVVS | -1.36 ± 0.75
KEEVRSLFIGTFPKIFFGLH | 0.251 ± 0.46
SFLSKSWY | 1.18 ± 0.17
LCVKVFRRFYRHVHIVHVSQ | -0.337 ± 0.4
SNQMWLMVCRVE | 0.112 ± 0.19
GDGLEMCWVA | -0.226 ± 0.37
FRDVPGRECMRLRVYGMNLP | 0.753 ± 0.21
MSAYR | -0.018 ± 0.65
SGWDCSRVIQVLQVKNIYDS | 3.36 ± 0.06
WVQLWESASFGNRLVGNMSL | -0.352 ± 1
VRGSNV | -0.637 ± 0.33
GMGVYYVSSFSLRLWNGMTV | 1.65 ± 0.13
TYKMKNMGICIYRYARLGDC | 0.372 ± 0.74
ISSDRIYICL | 5.996 ± 0.059
VNMFSFHYFHSVMRFLFYRW | -0.751 ± 0.41
YVMNRCNR | -0.019 ± 0.54
AAHQMMCRFGPIPF | 1.22 ± 0.23
HEVVKFK | 0.016 ± 1.1
LTYLTWFLSMDQGMLNWLHV | 0.973 ± 0.35
SRSQPVICWNTWFVTWYESS | 8.914 ± 0.075
LGGRYDVVMLIYLQSALFMG | 0.285 ± 1
GYVFYNFFYSAQSRLSSLSN | 0.52 ± 0.15
NCWISIYNMFLLRRRMMGMG | -0.611 ± 0.63
DRVCGLPNVHSCVCYFAGRN | 5.47 ± 0.076

Reference: the supplement of paper PMC12042874
